Non-standard residues stand in square brackets, D forms with d. *: point of attachment. X11 = ((1S)-1-carboxy-3-methylbutyl)carbamoyl, CC(C)C[C@H](NC(=O)*)C(=O)O; Phe(3-Me) = Cc1cccc(C[C@H](N)C(=O)O)c1; Phe(2-Me) = Cc1ccccc1C[C@H](N)C(=O)O; tBuAla = CC(C)(C)C[C@H](N)C(=O)O; 4Pal = N[C@@H](Cc1ccncc1)C(=O)O; Cha = N[C@@H](CC1CCCCC1)C(=O)O; Aib = CC(C)(N)C(=O)O

In assay [1] the target is T1, human Y2 receptor (human, UniProt P49146 1-381).
T1 construct: whole, on cells; used as membrane fraction of CHO/dhfr- cells stably expressing hY2R; also called hY2R; human NPY2R
T1 sequence (looked up): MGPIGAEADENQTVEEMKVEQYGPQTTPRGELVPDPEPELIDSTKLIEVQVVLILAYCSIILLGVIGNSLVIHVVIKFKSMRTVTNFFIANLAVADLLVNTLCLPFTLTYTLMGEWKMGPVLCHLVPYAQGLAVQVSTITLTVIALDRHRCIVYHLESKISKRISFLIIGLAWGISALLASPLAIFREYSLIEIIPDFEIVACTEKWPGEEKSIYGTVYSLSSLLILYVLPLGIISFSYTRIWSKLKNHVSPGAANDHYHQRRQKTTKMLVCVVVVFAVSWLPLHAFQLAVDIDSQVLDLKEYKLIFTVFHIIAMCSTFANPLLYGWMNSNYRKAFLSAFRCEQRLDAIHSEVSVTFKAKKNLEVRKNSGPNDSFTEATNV
Put plainly: RBA: displacement of [125I]-PYY from hY2R/CHO membranes. As to the method:
After incubation at room temperature for 60 minutes, the mixture was filtered through the cell harvester FilterMate (PerkinElmer) using UniFilter-96 GF/C treated with polyethylenimine (PEI) solution (20 mM Tris, 0.3% PEI, pH 7.4), and the filter was washed 3 times with a filtering buffer (50 mM Tris, 5 mM MgCl₂, 150 mM NaCl, 0.03% NaN₃, 0.05% CHAPS, pH 7.4). Thereafter, UniFilter-96 GF/C was dried in a mechanical drier for 1 hour, 15 μl of the liquid scintillator MicroScint O (PerkinElmer) was added to each well, and a measurement was taken using TopCount (PerkinElmer). The data obtained were analyzed using Prism to calculate the IC₅₀ value.
For orientation: In a radioligand displacement assay an active substance lowers the binding of a labelled ligand.

The target in assay [2] is T1, human Y2 receptor. Description: cell-based or functional assay.

B1: Ac-[Arg20, D-Tyr21, D-Pro24, Pya(4)26, Cha27, Aib28,31, Lys30, Phe(2Me)36]-PYY(20-36) (peptide)
peptide: Ac-R[dY]AS[dP]R[4Pal][Cha][Aib]NK[Aib]TRQR[Phe(2-Me)]-NH2
SMILES: CC(=O)N[C@@H](CCCNC(=N)N)C(=O)N[C@H](Cc1ccc(O)cc1)C(=O)N[C@@H](C)C(=O)N[C@@H](CO)C(=O)N1CCC[C@@H]1C(=O)N[C@@H](CCCNC(=N)N)C(=O)N[C@@H](Cc1ccncc1)C(=O)N[C@@H](CC1CCCCC1)C(=O)NC(C)(C)C(=O)N[C@@H](CC(N)=O)C(=O)N[C@@H](CCCCN)C(=O)NC(C)(C)C(=O)N[C@H](C(=O)N[C@@H](CCCNC(=N)N)C(=O)N[C@@H](CCC(N)=O)C(=O)N[C@@H](CCCNC(=N)N)C(=O)N[C@@H](Cc1ccccc1C)C(N)=O)[C@@H](C)O
notes: also called compound No. 261
With B1, the “IC50 Ratio” value with human Y2 receptor [1] was 0.54 IC50 compound/IC50 PYY(3-36). For the same molecule, the “GBA EC50 Ratio ([35S]GTPγS binding)” value with human Y2 receptor [2] was 0.81 EC50 compound/EC50 PYY(3-36).

B2: Ac-[D-Pro24, Cha27, Leu(Me)28, Lys30, Aib31, Phe(3Me)36]-PYY(23-36) (peptide)
peptide: Ac-S[dP]RH[Cha][tBuAla]NK[Aib]TRQR[Phe(3-Me)]-NH2
SMILES: CC(=O)N[C@@H](CO)C(=O)N1CCC[C@@H]1C(=O)N[C@@H](CCCNC(=N)N)C(=O)N[C@@H](Cc1c[nH]cn1)C(=O)N[C@@H](CC1CCCCC1)C(=O)N[C@@H](CC(C)(C)C)C(=O)N[C@@H](CC(N)=O)C(=O)N[C@@H](CCCCN)C(=O)NC(C)(C)C(=O)N[C@H](C(=O)N[C@@H](CCCNC(=N)N)C(=O)N[C@@H](CCC(N)=O)C(=O)N[C@@H](CCCNC(=N)N)C(=O)N[C@@H](Cc1cccc(C)c1)C(N)=O)[C@@H](C)O
notes: also called compound No. 258
Turning to B2, the “IC50 Ratio” value with human Y2 receptor [1] is 0.61 IC50 compound/IC50 PYY(3-36). Besides, the “GBA EC50 Ratio ([35S]GTPγS binding)” value with human Y2 receptor [2] was 0.78 EC50 compound/EC50 PYY(3-36).

B3: Ac-[D-Pro24, Gln26, Cha27,36, Aib28,31, Lys30]-PYY(23-36) (peptide)
peptide: Ac-S[dP]RQ[Cha][Aib]NK[Aib]TRQR[Cha]-NH2
SMILES: CC(=O)N[C@@H](CO)C(=O)N1CCC[C@@H]1C(=O)N[C@@H](CCCNC(=N)N)C(=O)N[C@@H](CCC(N)=O)C(=O)N[C@@H](CC1CCCCC1)C(=O)NC(C)(C)C(=O)N[C@@H](CC(N)=O)C(=O)N[C@@H](CCCCN)C(=O)NC(C)(C)C(=O)N[C@H](C(=O)N[C@@H](CCCNC(=N)N)C(=O)N[C@@H](CCC(N)=O)C(=O)N[C@@H](CCCNC(=N)N)C(=O)N[C@@H](CC1CCCCC1)C(N)=O)[C@@H](C)O
notes: also called compound No. 221
Consider B3, for which, in the assay with human Y2 receptor [1], the “IC50 Ratio” value was 3.1 IC50 compound/IC50 PYY(3-36). In addition, the “GBA EC50 Ratio ([35S]GTPγS binding)” value in the assay with human Y2 receptor [2] was 1.4 EC50 compound/EC50 PYY(3-36).

B4: Ac-[Glu23, D-Pro24, Cha27,28, Lys30, Aib31, Phe(3Me)36]-PYY(23-36) (peptide)
peptide: Ac-E[dP]RH[Cha][Cha]NK[Aib]TRQR[Phe(3-Me)]-NH2
SMILES: CC(=O)N[C@@H](CCC(=O)O)C(=O)N1CCC[C@@H]1C(=O)N[C@@H](CCCNC(=N)N)C(=O)N[C@@H](Cc1c[nH]cn1)C(=O)N[C@@H](CC1CCCCC1)C(=O)N[C@@H](CC1CCCCC1)C(=O)N[C@@H](CC(N)=O)C(=O)N[C@@H](CCCCN)C(=O)NC(C)(C)C(=O)N[C@H](C(=O)N[C@@H](CCCNC(=N)N)C(=O)N[C@@H](CCC(N)=O)C(=O)N[C@@H](CCCNC(=N)N)C(=O)N[C@@H](Cc1cccc(C)c1)C(N)=O)[C@@H](C)O
notes: also called compound No. 259
On to B4, for which the “IC50 Ratio” value in the assay with human Y2 receptor [1] was 1.1 IC50 compound/IC50 PYY(3-36). Further, the “GBA EC50 Ratio ([35S]GTPγS binding)” value in the assay with human Y2 receptor [2] was 0.93 EC50 compound/EC50 PYY(3-36).

B5: [(1S)-1-carboxy-3-methylbutyl]carbamoyl-[Glu23, D-Pro24, Cha27,28,36, Lys30, Aib31]-PYY(23-36) (peptide)
peptide: X11-E[dP]RH[Cha][Cha]NK[Aib]TRQR[Cha]-NH2
SMILES: CC(C)C[C@H](NC(=O)N[C@@H](CCC(=O)O)C(=O)N1CCC[C@@H]1C(=O)N[C@@H](CCCNC(=N)N)C(=O)N[C@@H](Cc1c[nH]cn1)C(=O)N[C@@H](CC1CCCCC1)C(=O)N[C@@H](CC1CCCCC1)C(=O)N[C@@H](CC(N)=O)C(=O)N[C@@H](CCCCN)C(=O)NC(C)(C)C(=O)N[C@H](C(=O)N[C@@H](CCCNC(=N)N)C(=O)N[C@@H](CCC(N)=O)C(=O)N[C@@H](CCCNC(=N)N)C(=O)N[C@@H](CC1CCCCC1)C(N)=O)[C@@H](C)O)C(=O)O
notes: also called compound No. 254
As for B5, the “IC50 Ratio” value in the assay with human Y2 receptor [1] was 2.8 IC50 compound/IC50 PYY(3-36). Further, the “GBA EC50 Ratio ([35S]GTPγS binding)” value with human Y2 receptor [2] was 1.5 EC50 compound/EC50 PYY(3-36).

B6: Ac-[D-Pro24, Phe26, Cha27,36, Aib28,31, Lys30]-PYY(23-36) (peptide)
peptide: Ac-S[dP]RF[Cha][Aib]NK[Aib]TRQR[Cha]-NH2
SMILES: CC(=O)N[C@@H](CO)C(=O)N1CCC[C@@H]1C(=O)N[C@@H](CCCNC(=N)N)C(=O)N[C@@H](Cc1ccccc1)C(=O)N[C@@H](CC1CCCCC1)C(=O)NC(C)(C)C(=O)N[C@@H](CC(N)=O)C(=O)N[C@@H](CCCCN)C(=O)NC(C)(C)C(=O)N[C@H](C(=O)N[C@@H](CCCNC(=N)N)C(=O)N[C@@H](CCC(N)=O)C(=O)N[C@@H](CCCNC(=N)N)C(=O)N[C@@H](CC1CCCCC1)C(N)=O)[C@@H](C)O
notes: also called compound No. 345
Turning to B6, in the assay with human Y2 receptor [1], the “IC50 Ratio” value is 1.1 IC50 compound/IC50 PYY(3-36). For the same molecule, in the assay with human Y2 receptor [2], the “GBA EC50 Ratio ([35S]GTPγS binding)” value was 1.4 EC50 compound/EC50 PYY(3-36).

The values are drawn from US20120172293A1 (Takeda / Millennium, published 2012).
